Where a SMILES comes first, the peptide text is derived from it. [ ]: non-standard residue; d: D form.
Tests used:
PKC-δ = PKC-δ (Homo sapiens, UniProt Q05655); experiment: ELISA-based competitive binding assay with purified PKC isoform; design: key to Affinity for PKC isoform δ: —: no detectable affinity; Low to very low affinity at 10X or 20X or both PRE concentrations in at least one cell line in the cell extract assay; Low affinity in purified isoform assay.; Moderate affinity at 10X or 20X or both PRE concentrations in at least one cell line in the cell extract assay.; High affinity at 10X or 20X or both PRE concentrations in at least one cell line in the cell extract assay; High affinity in purified isoform assay; details: for Affinity for PKC isoform δ: Purified isoform
Sequence of PKC-δ (Q05655 whole entry, canonical isoform): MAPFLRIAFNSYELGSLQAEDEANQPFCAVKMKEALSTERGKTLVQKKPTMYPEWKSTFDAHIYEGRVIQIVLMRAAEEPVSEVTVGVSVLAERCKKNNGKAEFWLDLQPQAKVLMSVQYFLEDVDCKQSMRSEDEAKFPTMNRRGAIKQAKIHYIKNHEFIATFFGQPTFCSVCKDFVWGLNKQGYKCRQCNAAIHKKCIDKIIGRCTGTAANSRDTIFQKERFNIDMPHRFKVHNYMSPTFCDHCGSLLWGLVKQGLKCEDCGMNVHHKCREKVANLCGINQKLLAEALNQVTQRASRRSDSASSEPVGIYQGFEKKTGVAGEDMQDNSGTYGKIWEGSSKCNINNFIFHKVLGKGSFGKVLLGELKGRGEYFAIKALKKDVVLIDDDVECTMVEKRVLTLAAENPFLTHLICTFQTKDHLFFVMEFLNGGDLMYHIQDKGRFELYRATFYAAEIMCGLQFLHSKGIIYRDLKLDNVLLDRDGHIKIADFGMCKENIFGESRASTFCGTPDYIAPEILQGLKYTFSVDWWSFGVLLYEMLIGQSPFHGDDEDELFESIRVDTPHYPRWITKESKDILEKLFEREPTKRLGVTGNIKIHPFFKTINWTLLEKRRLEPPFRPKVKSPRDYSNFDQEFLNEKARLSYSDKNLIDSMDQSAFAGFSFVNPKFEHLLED
Protocol: (§1) Peptides PRE 1, 2, 3, 4, 5, 6, 7, 8, 9, 10, 11, 12 and 13 (see Table 3) were tested for their ability to interfere with binding of PKC isoform-specific antibodies to their target PKC isoforms using a competitive binding assay and purified PKC isoforms.
(§2) Procedure: Competitive binding was assessed using a 96 well plate ELISA-based assay as described below.
(§3) Greiner 96 well ELISA plates were coated with the appropriate PKC isoform diluted in PBSN (PBS with Calcium/Magnesium+0.05% Sodium azide w/w). 50 μL/well at 250 ng/mL was used. Control wells contained PBSN only. Plates were incubated overnight at 4° C.
(§4) The plates were washed 3 times with 200 μL of dH2O per well, then 100 μL of blocking solution was added per well and the plate incubated for 1 h at 37° C. The washing steps with dH2O were repeated and 50 μL of the appropriate PRE solution (PRE stock solution [20 mM in DMSO] diluted in PBSN) was added and the plate incubated for 1 h at room temperature.
(§5) After incubation, 5 μL of 1.1:400 anti-PKC (isoform specific antibody) was added per well (to provide a final concentration of 1:4000). For PKC-epsilon, 1.1:800 dilution was used and for PKC-zeta a 1.1:100 dilution was used due to high and low binding affinity, respectively. The plates were then incubated 1 h at room temperature, followed by washing with dH2O as described above.
(§6) 50 μL of 1:1000 dilution of Alkaline Phosphatase (AP) conjugated antibody (anti-rabbit for all except zeta, which was anti-goat) was then added and the plate incubated for 1 h at room temperature. Washing with dH2O was then repeated. Finally, 100 μL of pNPP solution in pNPP buffer (2 mM MgCl2, 100 mM Sodium bicarbonate in water, pH 9.8) was added to all wells and incubated for 8 minutes for α, βI, βII ε, and ζ, or for 15-20 mins for δ (until sufficient coloration is observed). The reaction was stopped by addition of Stop solution (2N NaOH) and the absorbance at 405 nm was read on a Galaxy Plate reader.
(§7) Controls were PKC without PRE; blank controls, and controls containing the final concentrations of DMSO used for solubilizing the PREs. The non-specific binding capacity related to DMSO was also measured.
(§8) The antibodies used were as follows: anti-PKC α (Cat. No. SC-208); anti-PKC βI (Cat. No. SC-209); anti-PKC βII (Cat. No. SC-210); anti-PKC δ (Cat. No. SC-213); anti-PKC ε (Cat. No. SC-214); anti-PKC ζ (Cat. No. SC-216-G) (all from Santa Cruz Biotechnology, Inc.). The AP-conjugated antibodies were obtained from Jackson Immuno Research Laboratories (West Grove, Pa.).
(§9) Calculations: The OD values measured at 405 nm represent the free PKC coated per well.
(§10) OD405 PKC alone−Blank OD405 of each sample=OD405 coated isoform
(§11) (OD405 of sample X/OD405 coated isoform)×100=% n that represents the percentage of X binding compared to control.
(§12) 100-% n measures the relative binding capacity of X towards the tested isoform.
(§13) The apparent binding capacity of the DMSO samples was then subtracted from X binding capacity.
(§14) All measurements were made in triplicate and the values in the table represent the averaged calculated binding capacity values after subtraction of the DMSO apparent binding capacity (averaged from 12 values, respectively 10.80, 11.20 and 16.40 corresponding to the concentrations of DMSO used to dilute the […] at 200, 100 and 50 μM respectively). The results allow for quantitative comparison of the binding capacity of each PRE towards an individual isoform within each table, but not among isoforms due to differences in sensitivity of the specific antibodies toward the secondary antibody. This applies particularly to PKC-delta. As noted above, the colour development duration was increased 2-3 times and, as a result, the OD405 measurements may be overestimated for this isoform.

PKC-ε = target: T1, PKC-ε (Homo sapiens, UniProt Q02156); experiment: as above; design: key to Affinity for PKC isoform ε: —: no detectable affinity; Low to very low affinity at 10X or 20X or both PRE concentrations in at least one cell line in the cell extract assay; Low affinity in purified isoform assay.; Moderate affinity at 10X or 20X or both PRE concentrations in at least one cell line in the cell extract assay.; High affinity at 10X or 20X or both PRE concentrations in at least one cell line in the cell extract assay; High affinity in purified isoform assay; details: for Affinity for PKC isoform ε: Purified isoform; for inhibition at 50 µM / inhibition at 100 µM / calculated binding capacity (100-% n, DMSO apparent binding subtracted): purified PKC-ε; for inhibition at 50 µM / inhibition at 100 µM: read-out: calculated binding capacity (100-% n, DMSO apparent binding subtracted)
T1 sequence (Q02156 1-737): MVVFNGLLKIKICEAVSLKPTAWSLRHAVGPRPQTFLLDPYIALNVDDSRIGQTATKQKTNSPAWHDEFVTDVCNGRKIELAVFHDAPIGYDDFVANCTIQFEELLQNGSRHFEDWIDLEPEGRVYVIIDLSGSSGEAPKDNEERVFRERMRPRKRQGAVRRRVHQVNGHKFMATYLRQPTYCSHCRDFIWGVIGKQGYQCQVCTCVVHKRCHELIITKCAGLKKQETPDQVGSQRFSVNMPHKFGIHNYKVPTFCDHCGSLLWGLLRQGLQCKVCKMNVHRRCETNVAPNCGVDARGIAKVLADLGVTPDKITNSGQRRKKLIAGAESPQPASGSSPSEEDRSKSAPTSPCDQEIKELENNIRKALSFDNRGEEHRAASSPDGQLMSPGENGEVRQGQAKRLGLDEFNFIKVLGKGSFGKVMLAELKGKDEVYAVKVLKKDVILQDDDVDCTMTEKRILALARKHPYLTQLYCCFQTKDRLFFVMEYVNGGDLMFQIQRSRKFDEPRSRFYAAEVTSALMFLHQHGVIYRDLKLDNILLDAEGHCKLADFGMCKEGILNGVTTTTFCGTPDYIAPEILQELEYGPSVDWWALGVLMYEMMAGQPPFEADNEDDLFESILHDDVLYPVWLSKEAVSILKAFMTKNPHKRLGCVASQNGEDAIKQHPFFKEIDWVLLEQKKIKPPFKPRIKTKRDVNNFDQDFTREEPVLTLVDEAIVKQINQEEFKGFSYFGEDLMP
Protocol: as §1, §2, §3, §4, §5, §6, §7, §8, §9, §10, §11, §12, §13, §14

Compound	Affinity for PKC isoform δ (PKC-δ)	Affinity for PKC isoform ε (PKC-ε)	also measured
CC[C@H](C)[C@H](NC(=O)[C@H](CO)NC(=O)[C@@H](NC(=O)CNC(=O)[C@@H](NC(=O)[C@H](CC(C)C)NC(=O)[C@H](CC(N)=O)NC(=O)[C@H](CCC(N)=O)NC(=O)[C@H](C)NC(=O)[C@H](CC(=O)O)NC(=O)CNC(=O)CNC(=O)[C@H](CCCCN)NC(=O)[C@@H](NC(=O)[C@H](CCC(=O)O)NC(=O)[C@H](CCC(N)=O)NC(=O)[C@@H](NC(=O)CNC(=O)[C@H](CCCCN)NC(=O)[C@H](C)NC(C)=O)[C@@H](C)CC)C(C)C)[C@@H](C)CC)[C@@H](C)CC)C(N)=O [PRE 3] (Ac-AKGIQEVKGGDAQNLIGISI-NH2)	H	H	
CC[C@H](C)[C@H](NC(=O)[C@H](CO)NC(=O)[C@@H](NC(=O)CNC(=O)[C@@H](NC(=O)[C@H](CC(C)C)NC(=O)[C@H](CC(N)=O)NC(=O)[C@H](CCC(N)=O)NC(=O)[C@H](C)NC(=O)[C@H](CC(=O)O)NC(=O)[C@H](CCCCN)NC(C)=O)[C@@H](C)CC)[C@@H](C)CC)C(N)=O [PRE 4, Ac-KDAQNLIGISI-NH2] (Ac-KDAQNLIGISI-NH2)	H	—	inhibition at 50 µM (PKC-ε; PRE 50 μM): 0%; inhibition at 100 µM (PKC-ε; PRE 100 μM): 0%
CC[C@H](C)[C@H](NC(=O)[C@H](CO)NC(=O)[C@@H](NC(=O)CNC(=O)[C@@H](NC(=O)[C@H](CC(C)C)NC(=O)[C@H](CC(N)=O)NC(=O)[C@H](CCC(N)=O)NC(=O)[C@H](C)NC(=O)[C@H](CC(=O)O)NC(=O)[C@H](CCCCN)NC(=O)CNC(=O)CNC(=O)[C@H](CCCCN)NC(=O)[C@@H](NC(=O)[C@H](CCC(=O)O)NC(=O)[C@H](CCC(N)=O)NC(=O)[C@@H](NC(=O)CNC(=O)[C@H](CCCCN)NC(=O)[C@H](C)NC(C)=O)[C@@H](C)CC)C(C)C)[C@@H](C)CC)[C@@H](C)CC)C(N)=O [PRE 5] (Ac-AKGIQEVKGGKDAQNLIGISI-NH2)	L	—	inhibition at 50 µM (PKC-δ; PRE 50 μM, purified PKC-δ (may be overestimated), read-out: calculated binding capacity (100-% n, DMSO apparent binding subtracted)): 0.2%; inhibition at 100 µM (PKC-δ; PRE 100 μM, purified PKC-δ (may be overestimated), read-out: calculated binding capacity (100-% n, DMSO apparent binding subtracted)): 0%; inhibition at 50 µM (PKC-ε; PRE 50 μM): 0%; inhibition at 100 µM (PKC-ε; PRE 100 μM): 0%
Ac-ISIGILNQADK-NH2 [PRE 10]	—	—	calculated binding capacity (100-% n, DMSO apparent binding subtracted) (PKC-ε; PRE 50 μM): 0.91%; calculated binding capacity (100-% n, DMSO apparent binding subtracted) (PKC-ε; PRE 200 μM): 1.75%
Ac-ISIGILQNADK-NH2 (not fully specified; printed as Ac-ISIGILQNADK-NH2) [PRE 7]	—	L	
Ac-KDANQLIGISI-NH2 [PRE 6]	L	—	calculated binding capacity (100-% n, DMSO apparent binding subtracted) (PKC-ε; PRE 50 μM): 2.61%; calculated binding capacity (100-% n, DMSO apparent binding subtracted) (PKC-ε; PRE 100 μM): 0.46%
Ac-KDAQNLI-NH2 [PRE 12]	L	—	
Ac-RDAQNLI-NH2 [PRE 13]	L	—	
Ac-RDAQNLIGISI-NH2 [PRE 11]	H	L	
Ac-isigilqnadk-NH2 (Ac-[dI][dS][dI]G[dI][dL][dQ][dN][dA][dD][dK]-NH2; SMILES CC[C@@H](C)[C@@H](NC(C)=O)C(=O)N[C@H](CO)C(=O)N[C@@H](C(=O)NCC(=O)N[C@@H](C(=O)N[C@H](CC(C)C)C(=O)N[C@H](CCC(N)=O)C(=O)N[C@H](CC(N)=O)C(=O)N[C@H](C)C(=O)N[C@H](CC(=O)O)C(=O)N[C@H](CCCCN)C(N)=O)[C@H](C)CC)[C@H](C)CC) [PRE 9]	L	L	calculated binding capacity (100-% n, DMSO apparent binding subtracted) (PKC-δ; PRE 50 μM, purified PKC-δ (may be overestimated)): 16.23%; calculated binding capacity (100-% n, DMSO apparent binding subtracted) (PKC-δ; PRE 100 μM, purified PKC-δ (may be overestimated)): 19.27%; calculated binding capacity (100-% n, DMSO apparent binding subtracted) (PKC-δ; PRE 200 μM, purified PKC-δ (may be overestimated)): 9.95%; calculated binding capacity (100-% n, DMSO apparent binding subtracted) (PKC-ε; PRE 50 μM): 16.35%; calculated binding capacity (100-% n, DMSO apparent binding subtracted) (PKC-ε; PRE 100 μM): 8.53%
ILEDKGGDAQNLIGISI [PRE 8]	—	—	
RRKKGGKDFVVKR [PRE 1]	H	—	calculated binding capacity (100-% n, DMSO apparent binding subtracted) (PKC-ε; PRE 100 μM): 5.47%; calculated binding capacity (100-% n, DMSO apparent binding subtracted) (PKC-ε; PRE 200 μM): 0.83%
